Experimental data as given in patent US20240368263A1 (PROMETHEUS BIOSCIENCES, published 2024).
Positions count from the first letter of the chain named.

T1: human TL1A (Fitzgerald, Prod. #30R-AT070) (human, UniProt O95150 72-251, limits assumed, biotinylated with EZ-Link Sulfo-NHS-LC-Biotin where used as soluble antigen)
T1 construct: also called TNFSF15; biotinylated human TL1A
T1 sequence (looked up): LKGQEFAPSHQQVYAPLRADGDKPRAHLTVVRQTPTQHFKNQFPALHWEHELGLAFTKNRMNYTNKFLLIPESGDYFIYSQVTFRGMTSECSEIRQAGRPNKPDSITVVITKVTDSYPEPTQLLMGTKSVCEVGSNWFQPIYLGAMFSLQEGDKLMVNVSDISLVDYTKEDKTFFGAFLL

B1: clone 5-1 Fab (12835 framework variant) (Fab, V domains shown)
VH: QVQLVQSGAEVKKPGASVKLSCKASGFDIQDTYMHWVRQAPGQGLEWMGRIDPASGHTKYDPKFQVRVTMTRDTSTSTVYMELSSLRSEDTAVYYCSRSGGLPDVWGQGTTVTVSS
VL: EIVLTQSPGTLSLSPGERATLSCRASSSVSYMYWYQQKPGQAPRPWIYATSNLASGVPDRFSGSGSGTDYTLTISRLEPEDFAVYYCQQWSGNPRTFGGGTKLEIK
notes: Fab
B2: clone 19 Fab (12835 framework variant) (Fab, V domains shown)
VH: B1 VH with R72T
VL: B1 VL with P45L, W46L, V57I
notes: Fab
B3: clone 5-2 Fab (12835 framework variant) (Fab, V domains shown)
VH: B1 VH
VL: B1 VL with A19V, L21M
notes: Fab
B4: clone 5-4 Fab (12835 framework variant) (Fab, V domains shown)
VH: B1 VH with R72T
VL: B1 VL
notes: Fab
B5: clone 16-2 Fab (12835 framework variant) (Fab, V domains shown)
VH: B1 VH
VL: B1 VL with P45L, W46L, V57I
notes: Fab
B6: clone 21 Fab (12835 framework variant) (Fab, V domains shown)
VH: B1 VH with R72T
VL: B1 VL with P45L, V57I
notes: Fab
B7: clone 7-4 Fab (12835 framework variant) (Fab, V domains shown)
VH: B1 VH with R72T
VL: B1 VL with P45L
notes: Fab
B8: clone 20-7 Fab (12835 framework variant) (Fab, V domains shown)
VH: B1 VH with S97A
VL: B1 VL with P45L, W46L
notes: Fab
B9: clone 22 Fab (12835 framework variant) (Fab, V domains shown)
VH: B1 VH with R72T
VL: B1 VL with A19V, L21M, Y70F
notes: Fab
B10: clone 10-1 Fab (12835 framework variant) (Fab, V domains shown)
VH: B1 VH
VL: B1 VL with P45L, W46L
notes: Fab
B11: clone 9-1 Fab (12835 framework variant) (Fab, V domains shown)
VH: B1 VH
VL: B1 VL with Y70F
notes: Fab
B12: clone 13-2 Fab (12835 framework variant) (Fab, V domains shown)
VH: B1 VH with S97A
VL: B1 VL
notes: Fab
B13: clone 27 Fab (12835 framework variant) (Fab, V domains shown)
VH: B1 VH with L20V, R72T
VL: B1 VL with W46L
notes: Fab
B14: clone 17-2 Fab (12835 framework variant) (Fab, V domains shown)
VH: B1 VH
VL: B1 VL with P45L, W46L, Y70F
notes: Fab
B15: clone 26 Fab (12835 framework variant) (Fab, V domains shown)
VH: B1 VH with L20V, R72T
VL: B1 VL
notes: Fab
B16: clone 19-5 Fab (12835 framework variant) (Fab, V domains shown)
VH: B1 VH with L20V
VL: B1 VL with P45L, W46L
notes: Fab

Target: T1, human TL1A (Fitzgerald, Prod. …)
Assay: capture lift screen and Fab ELISA on coated TL1A

binding result	Binder
binds	B1
binds	B2
binds	B3
binds	B4
binds	B5
binds	B6
binds	B7
binds	B8
binds	B9
binds	B10
binds	B11
binds	B12
binds	B13
binds	B14
binds	B15
binds	B16
